Test results reported in patent publication US20030095983A1 (ZymoGenetics, published 2003).

T1: glycoprotein hormone beta 5 (GPHB5), human, beta subunit of CGH (human, UniProt Q86YW7 25-130)
T1 construct: Secreted from CHO 180 cells
T1 sequence: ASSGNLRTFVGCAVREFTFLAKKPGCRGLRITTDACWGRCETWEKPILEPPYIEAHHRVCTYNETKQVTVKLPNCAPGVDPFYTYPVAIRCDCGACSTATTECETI

B1: corticotroph-derived glycoprotein hormone (CGH), human recombinant, non-covalent heterodimer of GPHA2 and GPHB5 (ligand)
chain 1: QEAVIPGCHLHPFNVTVRSDRQGTCQGSHVAQACVGHCESSAFPSRYSVLVASGYRHNITSVSQCCTISGLKKVKVQLQCVGSRREELEIFTARACQCDMCRLSRY
chain 2: ASSGNLRTFVGCAVREFTFLAKKPGCRGLRITTDACWGRCETWEKPILEPPYIEAHHRVCTYNETKQVTVKLPNCAPGVDPFYTYPVAIRCDCGACSTATTECETI
B2: glycoprotein hormone alpha2 (GPHA2), human, alpha subunit of CGH (ligand)
chain: QEAVIPGCHLHPFNVTVRSDRQGTCQGSHVAQACVGHCESSAFPSRYSVLVASGYRHNITSVSQCCTISGLKKVKVQLQCVGSRREELEIFTARACQCDMCRLSRY
notes: Secreted from CHO 180 cells; also called Zsig51

Columns and labels:
[1] = molecular target: TSH receptor (TSHR) on primary human adipocytes (human, UniProt P16473 21-764); assay: cell-based or functional assay
Sequence of TSH receptor (TSHR) on primary human adipocytes (P16473 21-764): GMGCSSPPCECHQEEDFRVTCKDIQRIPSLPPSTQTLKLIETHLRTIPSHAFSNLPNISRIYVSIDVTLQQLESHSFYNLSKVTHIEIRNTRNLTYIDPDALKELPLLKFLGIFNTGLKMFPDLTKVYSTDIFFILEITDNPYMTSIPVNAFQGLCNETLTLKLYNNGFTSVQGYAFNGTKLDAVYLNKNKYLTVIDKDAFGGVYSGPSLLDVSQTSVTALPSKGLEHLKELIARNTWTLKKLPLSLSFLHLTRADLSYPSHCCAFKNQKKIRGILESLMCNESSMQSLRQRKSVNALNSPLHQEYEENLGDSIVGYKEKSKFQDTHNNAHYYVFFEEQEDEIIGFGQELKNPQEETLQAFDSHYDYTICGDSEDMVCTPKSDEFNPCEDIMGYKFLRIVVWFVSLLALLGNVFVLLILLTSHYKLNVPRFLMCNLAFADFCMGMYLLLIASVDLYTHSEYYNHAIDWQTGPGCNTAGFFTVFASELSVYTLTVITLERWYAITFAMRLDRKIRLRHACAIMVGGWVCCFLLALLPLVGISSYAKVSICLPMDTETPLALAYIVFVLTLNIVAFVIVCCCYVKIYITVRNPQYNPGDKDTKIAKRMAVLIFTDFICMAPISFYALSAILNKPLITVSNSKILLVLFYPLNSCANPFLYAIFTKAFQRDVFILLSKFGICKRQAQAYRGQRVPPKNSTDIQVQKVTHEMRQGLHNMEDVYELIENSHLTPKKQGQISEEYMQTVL

[2] = molecular target: TSH receptor (TSHR) on differentiated murine 3T3 L1 adipocytes (murine, UniProt P47750 22-764); assay: cell-based or functional assay
Sequence of TSH receptor (TSHR) on differentiated murine 3T3 L1 adipocytes (P47750 22-764): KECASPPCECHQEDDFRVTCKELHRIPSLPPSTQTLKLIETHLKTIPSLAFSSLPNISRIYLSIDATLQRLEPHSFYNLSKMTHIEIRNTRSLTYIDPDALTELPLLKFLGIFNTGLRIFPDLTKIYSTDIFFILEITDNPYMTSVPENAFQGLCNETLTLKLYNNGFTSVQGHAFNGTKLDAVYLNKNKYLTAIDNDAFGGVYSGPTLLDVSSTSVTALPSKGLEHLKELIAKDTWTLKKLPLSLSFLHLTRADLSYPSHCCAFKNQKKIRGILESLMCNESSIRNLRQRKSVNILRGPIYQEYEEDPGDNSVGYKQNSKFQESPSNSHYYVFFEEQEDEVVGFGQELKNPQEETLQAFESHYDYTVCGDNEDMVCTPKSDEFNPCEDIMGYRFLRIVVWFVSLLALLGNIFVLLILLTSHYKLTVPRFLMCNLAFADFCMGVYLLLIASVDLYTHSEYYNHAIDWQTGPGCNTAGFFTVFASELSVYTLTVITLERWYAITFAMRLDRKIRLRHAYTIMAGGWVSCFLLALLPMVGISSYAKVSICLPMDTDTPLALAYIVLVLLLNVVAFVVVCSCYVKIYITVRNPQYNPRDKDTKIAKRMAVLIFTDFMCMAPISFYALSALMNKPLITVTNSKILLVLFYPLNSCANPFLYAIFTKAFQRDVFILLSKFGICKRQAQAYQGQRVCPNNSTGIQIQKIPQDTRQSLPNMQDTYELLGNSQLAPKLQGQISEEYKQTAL

[3] = molecular target: T1, glycoprotein hormone beta 5 (GPHB5), …; assay: co-expression in CHO cells; secreted heterodimer

Binder	induction of the reporter gene (CRE-luciferase reporter, cAMP) [1] [fold]	induction of luciferase expression (CRE-luciferase reporter, cAMP) [2] [fold]	binding result [3]
B1	14	27	
B2			binds
